Holding throughout (assay): native MS
Data set [1] deals with the molecule itself.
Data set [2] deals with the molecule itself. The source holds these as a separate data set.
Data set [3] deals with the molecule itself. The source holds these as a separate data set.
Data set [4] deals with the molecule itself. This is another data set of the same source.
Data set [5] deals with the molecule itself. The source holds these as a separate data set.
Data set [6] concerns the molecule itself. This is another data set of the same source.

Substitutions are numbered along the chain they refer to. Names may count otherwise. Read-outs that look alike come from different tables or passages of the source.

The text below walks through data of PMC7135905 (Biochemical Journal, 2020).

B1: CtRocCOR (RocCOR construct of the Roco protein from Chlorobium tepidum, a.a. 412-946) (domain or fragment)
chain: DNPLESPPPEIVKQGKEAVRQYFQSIEEARSKGEALVHLQEIKVHLIGDGMAGKTSLLKQLIGETFDPKESQTHGLNVVTKQAPNIKGLENDDELKECLFHFWDFGGQEIMHASHQFFMTRSSVYMLLLDSRTDSNKHYWLRHIEKYGGKSPVIVVMNKIDENPSYNIEQKKINERFPAIENRFHRISCKNGDGVESIAKSLKSAVLHPDSIYGTPLAPSWIKVKEKLVEATTAQRYLNRTEVEKICNDSGITDPGERKTLLGYLNNLGIVLYFEALDLSEIYVLDPHWVTIGVYRIINSSKTKNGHLNTSALGYILNEEQIRCDEYDPAKNNKFTYTLLEQRYLLDIMKQFELCYDEGKGLFIIPSNLPTQIDNEPEITEGEPLRFIMKYDYLPSTIIPRLMIAMQHQILDRMQWRYGMVLKSQDHEGALAKVVAETKDSTITIAIQGEPRCKREYLSIIWYEIKKINANFTNLDVKEFIPLPGHPDELVEYKELLGLEKMGRDEYVSGKLEKVFSVSKMLDSVISKEERNKER
For B1, the “percent dimer (dimer/monomer ratio)” value in “native MS [1]” is around 90%; in the data set “native MS [2]” it was around 20%; in “native MS [3]” it was around 38%; in “native MS [4]”, around 87%; in the data set “native MS [5]”, around 26%; in “native MS [6]” it was around 97%. In “native MS [6]”, the stoichiometry N (in general, the number of molecules, sites or subunits per partner or assembly) is 2.

B2: CtRocCOR L487A mutant (domain or fragment)
chain: B1 chain with L76A
For B2, the “percent dimer (dimer/monomer ratio)” value in “native MS [1]” was around 100%; in “native MS [2]”, around 11%; in the data set “native MS [3]”, around 85%; in “native MS [5]” it was around 96%.
